Target: soluble form of hepsin encompassing the entire extracellular domain (Arg45-Leu417) and a C-terminal His8 tag (human) (UniProt P05981)
Assay: cell-based or functional assay

soluble form of hepsin encompassing the entire extracellular domain (Arg45-Leu417) and a C-terminal His8 tag (human), sequence (P05981 45-162 limits assumed, chain 1 of 2): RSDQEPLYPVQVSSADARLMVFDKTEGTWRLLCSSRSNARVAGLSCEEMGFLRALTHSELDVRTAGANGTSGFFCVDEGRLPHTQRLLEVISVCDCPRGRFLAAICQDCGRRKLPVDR
soluble form of hepsin encompassing the entire extracellular domain (Arg45-Leu417) and a C-terminal His8 tag (human), sequence (P05981 other isoform, or with tags, fused parts or gaps limits assumed, chain 2 of 2): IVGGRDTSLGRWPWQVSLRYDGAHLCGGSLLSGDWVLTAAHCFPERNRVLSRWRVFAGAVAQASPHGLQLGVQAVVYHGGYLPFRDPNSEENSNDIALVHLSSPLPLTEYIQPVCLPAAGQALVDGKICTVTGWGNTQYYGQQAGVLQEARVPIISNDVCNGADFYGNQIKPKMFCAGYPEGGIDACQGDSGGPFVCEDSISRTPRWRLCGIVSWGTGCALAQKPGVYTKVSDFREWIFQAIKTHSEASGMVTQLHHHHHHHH

Binder | IC50, inhibition of hepsin enzymatic activity towards S2366 (amidolytic assay) | activity in amidolytic assays as percent of wildtype and KD2 mutant | fold reduction of inhibitory activity against wildtype sHAI-1B (amidolytic assay)
sHAI-1B(K401A) (protein, UniProt O43278 36-465, looked up) GPPPAPPGLPAGADCLNSFTAGVPGFVLDTNASVSNGATFLESPTVRRGWDCVRACCTTQNCNLALVELQPDRGEDAIAACFLINCLYEQNFVCKFAPREGFINYLTREVYRSYRQLRTQGFGGSGIPKAWAGIDLKVQPQEPLVLKDVENTDWRLLRGDTDVRVERKDPNQVELWGLKEGTYLFQLTVTSSDHPEDTANVTVTVLSTKQTEDYCLASNKVGRCRGSFPRWYYDPTEQICKSFVYGGCLGNKNNYLREEECILACRGVQGGPLRGSSGAQATFPQGPSMERRHPVCSGTCQPTQFRCSNGCCIDSFLECDDTPNCPDASDEAACEKYTSGFDELQRIHFPSDKGHCVDLPDTGLCAESIPRWYYNPFSEHCARFTYGGCYGNKNNFEEEQQCLESCRGISKKDVFGLRREIPIPSTGSVE | 18.2 nM |  | 
sHAI-1B(R260A) (protein, UniProt O43278 36-465, looked up) GPPPAPPGLPAGADCLNSFTAGVPGFVLDTNASVSNGATFLESPTVRRGWDCVRACCTTQNCNLALVELQPDRGEDAIAACFLINCLYEQNFVCKFAPREGFINYLTREVYRSYRQLRTQGFGGSGIPKAWAGIDLKVQPQEPLVLKDVENTDWRLLRGDTDVRVERKDPNQVELWGLKEGTYLFQLTVTSSDHPEDTANVTVTVLSTKQTEDYCLASNKVGRCAGSFPRWYYDPTEQICKSFVYGGCLGNKNNYLREEECILACRGVQGGPLRGSSGAQATFPQGPSMERRHPVCSGTCQPTQFRCSNGCCIDSFLECDDTPNCPDASDEAACEKYTSGFDELQRIHFPSDKGHCVDLPDTGLCKESIPRWYYNPFSEHCARFTYGGCYGNKNNFEEEQQCLESCRGISKKDVFGLRREIPIPSTGSVE | > 1000 nM | < 1% | > 47 fold
soluble form of HAI-2 (sHAI-2), extracellular domain Ala28-Lys197 with a C-terminal His8 tag with a Gly spacer (protein, human, not shown: small tags and cut ends) ADRERSIHDFCLVSKVVGRCRASMPRWWYNVTDGSCQLFVYGGCDGNSNNYLTKEECLKKCATVTENATGDLATSRNAADSSVPSAPRRQDSEDHSSDMFNYEEYCTANAVTGPCRASFPRWYFDVERNSCNNFIYGGCRGNKNSYRSEEACMLRCFRQQENPPLPLGSKHHHHHHHH | 1.3 nM |  | 

From US20100209956A1
